{"source": "patent US5866538A", "about": "“Insulin preparations containing NaCl” (Novo Nordisk A/S, priority 1996, dated 1999)", "key": {"[1]": {"test": "Stability tests of Asp^B28 human insulin preparations in Penfill cartridges, varying NaCl (Example II)", "format": "physicochemical", "conditions": "phosphate 13.5 mM, 19.6 μg Zn/100 U insulin, pH 7.4", "protocol": "370.4 mg AspB28 human insulin was dissolved in water by adding 1.6 ml 0.2N HCl and 49 μl zinc chloride solution (40 mg Zn/ml). 40 g of a solution containing 40 mg/ml glycerol, 3.75 mg/g phenol and 4.30 mg/g m-cresol was added to the insulin solution while mixing. 20 g of a solution containing a) 12.0 mg/g disodium phosphate dihydrate+5 μl/g 2N sodium hydroxide, b) 12.0 mg/g disodium phosphate dihydrate+5 μl/g 2N sodium hydroxide+5 mg/g sodium chloride or c) 12.0 mg/g disodium phosphate dihydrate+5 μl/g 2N sodium hydroxide+10 mg/g sodium chloride was added while mixing. pH was adjusted to pH 7.40±0.05 and water added up to 100 ml. The Asp^B28 Human insulin preparations were introduced into Penfill® cartridges and subjected to stability tests at 25° C. and 37° C. The stability data obtained at the two different temperatures and at a phosphate concentration of 13.5 mM, 19.6 μg Zn/100 U insulin and pH=7.4 are summarized in Table 2."}, "[2]": {"test": "Stability tests of Asp^B28 human insulin preparations in Penfill cartridges, varying NaCl (Example III)", "format": "physicochemical", "conditions": "phosphate 13.5 mM, pH 7.40", "protocol": "369.4 mg Asp^B28 human insulin was dissolved in water by adding 1.6 ml 0.2N HCl and 49 μl zinc chloride solution (40 mg Zn/ml). 40 g of a solution containing 40 mg/g glycerol, 3.75 mg/g phenol and 4.30 mg/g m-cresol was added to the solution while mixing. 10 g of a solution containing 24.0 mg/g disodium phosphate dihydrate and 11 μl/g 2N sodium hydroxide was added while mixing. Finally varying amounts (0 g to 4.38 g) of a solution containing 40 mg/g sodium chloride were added while mixing up to a sodium chloride concentration mentioned in Table 4. pH was adjusted to 7.40±0.05 and water added up to 100 ml. The Asp^B28 Human insulin preparations were introduced into Penfill® cartridges and subjected to stability tests at 25° C. and 37° C."}, "[3]": {"conditions": "8 months at 25° C., NaCl added 0 mM, total conc. of Cl^- 4.4"}, "[4]": {"conditions": "8 months at 25° C., NaCl added 17 mM, total conc. of Cl^- 20.8"}, "[5]": {"conditions": "8 months at 25° C., NaCl added 34 mM, total conc. of Cl^- 37.8"}, "[6]": {"conditions": "8 weeks at 37° C., NaCl added 0 mM, total conc. of Cl^- 4.4"}, "[7]": {"conditions": "8 weeks at 37° C., NaCl added 17 mM, total conc. of Cl^- 20.8"}, "[8]": {"conditions": "8 weeks at 37° C., NaCl added 34 mM, total conc. of Cl^- 37.8"}, "[9]": {"conditions": "6 weeks at 37° C., NaCl added 5 mM, total Cl^- 8.5 mM"}, "[10]": {"conditions": "6 weeks at 37° C., NaCl added 12.5 mM, total Cl^- 16.3 mM"}, "[11]": {"conditions": "6 weeks at 37° C., NaCl added 20 mM, total Cl^- 23.8 mM"}, "[12]": {"conditions": "6 weeks at 37° C., NaCl added 25 mM, total Cl^- 28.8 mM"}, "[13]": {"conditions": "6 weeks at 37° C., NaCl added 30 mM, total Cl^- 33.8 mM"}, "[14]": {"conditions": "12 weeks at 25° C., NaCl added 0 mM, total Cl^- 3.8 mM"}, "[15]": {"conditions": "12 weeks at 25° C., NaCl added 5 mM, total Cl^- 8.5 mM"}, "[16]": {"conditions": "12 weeks at 25° C., NaCl added 12.5 mM, total Cl^- 16.3 mM"}, "[17]": {"conditions": "12 weeks at 25° C., NaCl added 20 mM, total Cl^- 23.8 mM"}, "[18]": {"conditions": "12 weeks at 25° C., NaCl added 25 mM, total Cl^- 28.8 mM"}, "[19]": {"conditions": "12 weeks at 25° C., NaCl added 30 mM, total Cl^- 33.8 mM"}}}
{"substance": "Asp^B28 human insulin", "values": [{"measurement": "Asp^B28 Des-amido insulins formed", "setting": "[1]; [3]", "result": 6.4, "unit": "%"}, {"measurement": "Di- & polymers formed", "setting": "[1]; [3]", "result": 1.0, "unit": "%"}, {"measurement": "Asp^B28 Des-amido insulins formed", "setting": "[1]; [4]", "result": 4.1, "unit": "%"}, {"measurement": "Di- & polymers formed", "setting": "[1]; [4]", "result": 0.8, "unit": "%"}, {"measurement": "Asp^B28 Des-amido insulins formed", "setting": "[1]; [5]", "result": 3.7, "unit": "%"}, {"measurement": "Di- & polymers formed", "setting": "[1]; [5]", "result": 0.8, "unit": "%"}, {"measurement": "Asp^B28 Des-amido insulins formed", "setting": "[1]; [6]", "result": 7.0, "unit": "%"}, {"measurement": "Di- & polymers formed", "setting": "[1]; [6]", "result": 1.86, "unit": "%"}, {"measurement": "Asp^B28 Des-amido insulins formed", "setting": "[1]; [7]", "result": 4.2, "unit": "%"}, {"measurement": "Di- & polymers formed", "setting": "[1]; [7]", "result": 1.29, "unit": "%"}, {"measurement": "Asp^B28 Des-amido insulins formed", "setting": "[1]; [8]", "result": 3.5, "unit": "%"}, {"measurement": "Di- & polymers formed", "setting": "[1]; [8]", "result": 1.07, "unit": "%"}, {"measurement": "Asp^B28 Des-amido insulins formed", "setting": "[2]; [9]", "result": 4.1, "unit": "%"}, {"measurement": "Di- & polymers formed", "setting": "[2]; [9]", "result": 0.99, "unit": "%"}, {"measurement": "Asp^B28 Des-amido insulins formed", "setting": "[2]; [10]", "result": 3.6, "unit": "%"}, {"measurement": "Di- & polymers formed", "setting": "[2]; [10]", "result": 0.92, "unit": "%"}, {"measurement": "Asp^B28 Des-amido insulins formed", "setting": "[2]; [11]", "result": 3.0, "unit": "%"}, {"measurement": "Di- & polymers formed", "setting": "[2]; [11]", "result": 0.87, "unit": "%"}, {"measurement": "Asp^B28 Des-amido insulins formed", "setting": "[2]; [12]", "result": 3.0, "unit": "%"}, {"measurement": "Di- & polymers formed", "setting": "[2]; [12]", "result": 0.82, "unit": "%"}, {"measurement": "Asp^B28 Des-amido insulins formed", "setting": "[2]; [13]", "result": 2.8, "unit": "%"}, {"measurement": "Di- & polymers formed", "setting": "[2]; [13]", "result": 0.80, "unit": "%"}, {"measurement": "Asp^B28 Des-amido insulins formed", "setting": "[2]; [14]", "result": 2.7, "unit": "%"}, {"measurement": "Di- & polymers formed", "setting": "[2]; [14]", "result": 0.36, "unit": "%"}, {"measurement": "Asp^B28 Des-amido insulins formed", "setting": "[2]; [15]", "result": 2.3, "unit": "%"}, {"measurement": "Di- & polymers formed", "setting": "[2]; [15]", "result": 0.32, "unit": "%"}, {"measurement": "Asp^B28 Des-amido insulins formed", "setting": "[2]; [16]", "result": 1.8, "unit": "%"}, {"measurement": "Di- & polymers formed", "setting": "[2]; [16]", "result": 0.39, "unit": "%"}, {"measurement": "Asp^B28 Des-amido insulins formed", "setting": "[2]; [17]", "result": 1.7, "unit": "%"}, {"measurement": "Di- & polymers formed", "setting": "[2]; [17]", "result": 0.39, "unit": "%"}, {"measurement": "Asp^B28 Des-amido insulins formed", "setting": "[2]; [18]", "result": 1.8, "unit": "%"}, {"measurement": "Di- & polymers formed", "setting": "[2]; [18]", "result": 0.38, "unit": "%"}, {"measurement": "Asp^B28 Des-amido insulins formed", "setting": "[2]; [19]", "result": 1.7, "unit": "%"}, {"measurement": "Di- & polymers formed", "setting": "[2]; [19]", "result": 0.38, "unit": "%"}]}
